Measurements reported in patent US20230213527A1 (QUANTUM SI, published 2023).
Blank lines part the entries; values can stand above or below the binder they belong to. Square brackets hold non-standard residues; d marks the D form. Ends that are not written are not given here. Cit = NC(=O)NCCC[C@H](N)C(=O)O

Tests used:
[1] = target: T1, QP706, vimentin peptide fragment … (SEQ ID NO: 841), state with N-terminal leucine (LEQQNK); test: single-molecule on-chip sequencing of QP706 with PS610, PS1220 and PS1223; LEQ cluster in bin ratio v. pulse duration plot
T1 construct: residue range inferred from the printed segment
T1 peptide: LEQQNK
Description: (§1) Sequencing reactions using the recognizers PS610 (FYW), PS1220 (R), and PS1223 (LIV) were performed separately for the QP706 and QP1073 peptide fragments. Each recognizer was labeled with a unique dye and/or unique number of dyes. A scatter plot of bin ratio v. pulse duration is shown for the QP706 peptide fragment in FIG. 18A and for the QP1073 peptide fragment in FIG. 18B. In the plot of FIG. 18A, three clusters corresponding to FLE, LEQ, and RFL segments are visible. […] In the plot of FIG. 18B, two clusters corresponding to FLE and LEQ segments are visible, but there is no cluster corresponding to RFL.

[2] = target: T2, QP1032, IRLAFAYPDDDK (SEQ ID NO: 849); test: single-molecule on-chip sequencing; recognition of the N-terminal amino acid
T2 peptide: IRLAFAYPDDDK
Description: (§2) In this example, sequencing reactions were conducted for 4 pairs of unmodified and citrullinated peptides: QP1028 & QP1029, QP1030 & QP1031, QP1032 & QP1033, and QP707 & QP789. […] For the QP1028 & QP1029 and QP1030 & QP1031 pairs, sequencing reactions were conducted using the PS610 (FYW) recognizer. For the QP1032 & QP1033 and QP707 & QP789 pairs, sequencing reactions were conducted using the PS1223 (LIV) recognizer.

[3] = target: T3, QP789, LCitLAFAYPDDDK (SEQ ID NO: 839) (also: C-terminal azidolysine (general statement for all synthetic peptides)); test: as above
T3 construct: Intact peptide, N-terminal leucine
T3 peptide: L[Cit]LAFAYPDDDK-NH2
Description: as §2

[4] = target: T4, QP1033, ICitLAFAYPDDDK (SEQ ID NO: 850) (also: C-terminal azidolysine (general statement for all synthetic peptides)); test: as above
T4 peptide: I[Cit]LAFAYPDDDK-NH2
Description: as §2

[5] = target: T5, QP707, LRLAFAYPDDDK (SEQ ID NO: 817) (not fully specified (C-terminus); also: surface-immobilized through C-terminal linker); test: as above
T5 construct: Intact peptide, N-terminal leucine; surface-immobilized through a C-terminal linker
T5 peptide: LRLAFAYPDDDK
Description: as §2

[6] = target: T6, QP1073, citrullinated vimentin peptide fragment VCitFLEQQNK (SEQ ID NO: 842), state with N-terminal leucine …; test: single-molecule on-chip sequencing of QP1073 with PS610, PS1220 and PS1223; bin ratio v. pulse duration plot
T6 construct: State after aminopeptidase cleavage
T6 peptide: LEQQNK
Description: as §1

[7] = target: T7, QP1073, citrullinated vimentin peptide fragment VCitFLEQQNK (SEQ ID NO: 842), state with N-terminal …; test: single-molecule on-chip dynamic sequencing; bin ratio v. pulse duration clusters
T7 construct: residue range inferred
T7 peptide: [Cit]FLEQQNK
Description: as §1

[8] = target: T8, QP706, vimentin peptide fragment … (SEQ ID NO: 841), state with N-terminal arginine (RFLEQQNK); test: single-molecule on-chip sequencing of QP706 with PS610, PS1220 and PS1223; RFL cluster in bin ratio v. pulse duration plot
T8 construct: residue range inferred from the printed segment
T8 peptide: RFLEQQNK
Description: as §1

[9] = target: T9, QP938, … (SEQ ID NO: 919), state with N-terminal arginine; test: single-molecule on-chip sequencing with PS621, PS610 and PS961; average of 10 sequencing reactions
T9 construct: State after aminopeptidase cleavage of the N-terminal leucine; residue range inferred; also called R-X peptide, X = E
T9 peptide: REAFAYPDDDK

[10] = target: T10, QP941, … (SEQ ID NO: 923), state with N-terminal arginine; test: as above
T10 construct: State after aminopeptidase cleavage of the N-terminal leucine; residue range inferred; also called R-X peptide, X = Q
T10 peptide: RQAFAYPDDDK

[11] = target: T11, QP942, … (SEQ ID NO: 921), state with N-terminal arginine; test: as above
T11 construct: State after aminopeptidase cleavage of the N-terminal leucine; residue range inferred; also called R-X peptide, X = T
T11 peptide: RTAFAYPDDDK

[12] = target: T12, QP943, … (SEQ ID NO: 925), state with N-terminal arginine; test: as above
T12 construct: State after aminopeptidase cleavage of the N-terminal leucine; residue range inferred; also called R-X peptide, X = V
T12 peptide: RVAFAYPDDDK

[13] = target: T13, QP746, … (SEQ ID NO: 913), state with N-terminal arginine; test: as above
T13 construct: State after aminopeptidase cleavage of the N-terminal leucine; residue range inferred; also called R-X peptide, X = Y
T13 peptide: RYAFAYPDDDK

[14] = target: T14, QP749, … (SEQ ID NO: 911), state with N-terminal arginine; test: as above
T14 construct: State after aminopeptidase cleavage of the N-terminal leucine; residue range inferred; also called R-X peptide, X = I
T14 peptide: RIAFAYPDDDK

[15] = target: T15, QP748, … (SEQ ID NO: 915), state with N-terminal arginine; test: as above
T15 construct: State after aminopeptidase cleavage of the N-terminal leucine; residue range inferred; also called R-X peptide, X = S
T15 peptide: RSAFAYPDDDK

[16] = target: T16, QP747, … (SEQ ID NO: 917), state with N-terminal arginine; test: as above
T16 construct: State after aminopeptidase cleavage of the N-terminal leucine; residue range inferred; also called R-X peptide, X = A
T16 peptide: RAAFAYPDDDK

[17] = target: T17, QP707, … (SEQ ID NO: 817), state with N-terminal arginine (RLAFAYPDDDK); test: as above
T17 construct: residue range inferred from the recognized N-terminal residue; also called R-X peptide, X = L
T17 peptide: RLAFAYPDDDK

[18] = target: T18, QP789, LCitLAFAYPDDDK (SEQ ID NO: 839), state with N-terminal citrulline (CitLAFAYPDDDK); test: single-molecule on-chip dynamic sequencing
T18 construct: residue range inferred
T18 peptide: [Cit]LAFAYPDDDK

[19] = target: T19, … (SEQ ID NO: 836), state with N-terminal SDMA (human, symmetric dimethylarginine (SDMA) at position 2 of SEQ ID NO: 836 (N-terminal residue of this state); conjugated C-terminally to a macromolecular linker); test: single-molecule on-chip dynamic sequencing
T19 construct: residue range inferred

[20] = target: T12, QP943, … (SEQ ID NO: 925), state with …; test: cell-based or functional assay
[21] = target: T13, QP746, … (SEQ ID NO: 913), state with …; test: cell-based or functional assay
[22] = target: T14, QP749, … (SEQ ID NO: 911), state with …; test: cell-based or functional assay
[23] = target: T17, QP707, … (SEQ ID NO: 817), state with …; test: cell-based or functional assay

binding result [1]: binds | Pulse Width [2]: 0.58 s | Pulse Width [3]: 0.92 s | Pulse Width [4]: 0.84 s | Pulse Width [5]: 0.42 s | binding result [6]: binds
B1: PS1223 (designed binder)
chain: MPTAASATESAIEDTPAPARPEVDGRTKPKRQPRYHVVLWDDDDHTYQYVVVMLRSLFGHPPSRGYRMAKEMDTQGRVIVLTTTREHAELKRDQIHAFGRDRLLARSKGSMKASIEAEEGSAGSAAGSGEFGSAGSAAGSGEFGSAGSAAGSGEFMPTAASATESAIEDTPAPARPEVDGRTKPKRQPRYHVVLWDDDDHTYQYVVVMLRSLFGHPPSRGYRMAKEMDTQGRVIVLTTTREHAELKRDQIHAFGRDRLLARSKGSMKASIEAEE
notes: also called PS1223 (LIV)

binding result [7]: no binding | binding result [8]: binds
B2: PS1220 (designed binder)
chain: MHSKFSHAGRICGAKFKVGEPIYRCKECSFDDTCVLCVNCFNPKDHLGHHVYTTICTEFNNGECDCGDKTAWNHTLFCKAEEGSAGSAAGSGEFMHSKFSHAGRICGAKFKVGEPIYRCKECSFDDTCVLCVNCFNPKDHLGHHVYTTICTEFNNGECDCGDKTAWNHTLFCKAEEG
notes: also called PS1220 (R)

PW of R-X [9]: < 0.06 s | PW of R-X [10]: < 0.06 s | PW of R-X [11]: < 0.06 s | PW of R-X [12]: 0.41 s | PW of R-X [13]: 0.18 s | PW of R-X [14]: 0.28 s | PW of R-X [15]: < 0.12 s | PW of R-X [16]: < 0.12 s | PW of R-X [17]: 0.47 s | binding result [18]: no binding | binding result [19]: no binding | RS R-X [20]: 25.5 min | RS R-X [21]: 9.6 min | RS R-X [22]: 15.4 min | RS R-X [23]: 17.3 min
B3: PS621 (other)
chain: MHSKFSHAGRICGAKFKVGEPIYRCKECSFDDTCVLCVNCFNPKDHTGHHVYTTICTEFNNGICDCGDKEAWNHTLFCKAEEG
notes: Dye-labeled N-terminal arginine recognizer; also called PS621 (R)
